The results in this text go back to article PMC6043778, “Purification and Initial Characterization of 3-Hydroxybenzoate 6-Hydroxylase From a Halophilic Martelella Strain AD-3” (Frontiers in Microbiology, 2018).

In data set [1] the target is T1, 3HB6H from strain AD-3 (3-hydroxybenzoate 6-hydroxylase; AZF01_02545) (Martelella sp. AD-3, UniProt Z9T156WZO1).
T1 construct: full-length, N-terminal His6 tag (pET28a, EcoRI/HindIII), E. coli BL21(DE3), Ni-NTA; about 46 kDa by SDS-PAGE, 90 kDa by Native-PAGE (probable dimer); FAD-containing
T1 sequence (Z9T156WZO1 1-403): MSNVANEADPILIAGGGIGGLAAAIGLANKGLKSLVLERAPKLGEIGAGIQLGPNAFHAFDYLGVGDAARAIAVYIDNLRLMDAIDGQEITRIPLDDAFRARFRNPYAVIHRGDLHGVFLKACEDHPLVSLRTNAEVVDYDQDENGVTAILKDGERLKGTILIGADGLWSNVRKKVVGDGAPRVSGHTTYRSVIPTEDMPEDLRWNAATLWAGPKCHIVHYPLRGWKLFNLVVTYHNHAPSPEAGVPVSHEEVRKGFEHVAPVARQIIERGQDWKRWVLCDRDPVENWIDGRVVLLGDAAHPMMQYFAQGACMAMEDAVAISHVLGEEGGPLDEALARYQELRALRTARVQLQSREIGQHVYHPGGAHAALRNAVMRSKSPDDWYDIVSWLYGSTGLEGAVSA
The experiment in a line: NADH oxidation at […] nm, Lineweaver-Burk. The data set is classed as biochemical. Particulars: 50 mM potassium phosphate pH 8.0, 30°C.

Substrate in data set [2]: O=C(O)c1cccc(O)c1
As to the kind of experiment: purified protein. The data set is classed as biochemical, Martelella sp. AD-3. The settings on record: 400 μM NADH, 50 mM potassium phosphate pH 8.0, 30°C.

Substrate in data set [3]: NC(=O)C1=CN([C@@H]2O[C@H](COP(=O)(O)OP(=O)(O)OC[C@H]3O[C@@H](n4cnc5c(N)ncnc54)[C@H](O)[C@@H]3O)[C@@H](O)[C@H]2O)C=CC1
The experiment in a line: purified protein. Format: biochemical, Martelella sp. AD-3. The settings on record: 400 μM 3-hydroxybenzoate, 50 mM potassium phosphate pH 8.0, 30°C.

Like-named read-outs stand apart in the source and are kept apart here.

On to `NC(=O)C1=CN([C@@H]2O[C@H](COP(=O)(O)OP(=O)(O)OC[C@H]3O[C@@H](n4cnc5c(N)ncnc54)[C@H](O)[C@@H]3O)[C@@H](O)[C@H]2O)C=CC1` [NADH], for which, in data set [1] (400 μM 3-hydroxybenzoate, read-out: NADH / Km), the Km was determined as 50 ± 9.7 µM.
With `O=C(O)c1cccc(O)c1` [3-hydroxybenzoate], the Km in data set [1] (400 μM NADH, read-out: 3HB / Km) was determined as 28.6 ± 7.3 µM.

B1: 3HB6H from strain AD-3 (3-hydroxybenzoate 6-hydroxylase; AZF01_02545) (Martelella sp. AD-3) (protein)
chain: MSNVANEADPILIAGGGIGGLAAAIGLANKGLKSLVLERAPKLGEIGAGIQLGPNAFHAFDYLGVGDAARAIAVYIDNLRLMDAIDGQEITRIPLDDAFRARFRNPYAVIHRGDLHGVFLKACEDHPLVSLRTNAEVVDYDQDENGVTAILKDGERLKGTILIGADGLWSNVRKKVVGDGAPRVSGHTTYRSVIPTEDMPEDLRWNAATLWAGPKCHIVHYPLRGWKLFNLVVTYHNHAPSPEAGVPVSHEEVRKGFEHVAPVARQIIERGQDWKRWVLCDRDPVENWIDGRVVLLGDAAHPMMQYFAQGACMAMEDAVAISHVLGEEGGPLDEALARYQELRALRTARVQLQSREIGQHVYHPGGAHAALRNAVMRSKSPDDWYDIVSWLYGSTGLEGAVSA
notes: full-length, N-terminal His6 tag (pET28a, EcoRI/HindIII), E. coli BL21(DE3), Ni-NTA; about 46 kDa by SDS-PAGE, 90 kDa by Native-PAGE (probable dimer); FAD-containing
By kcat is commonly meant the number of substrate molecules converted per active site and unit of time at saturation. As a reminder, the kcat/Km is the turnover number divided by the Michaelis constant. As to B1, in the data set “purified protein [2]”, the Km came out at 72.6 ± 10.1 µM, the catalytic constant (kcat) worked out at 5.7 ± 0.2 s⁻¹ and the catalytic efficiency (kcat/Km) was found to be 80000 M⁻¹ s⁻¹. In “purified protein [3]”, the Km stood at 104.1 ± 18.2 µM, the kcat was found to be 7.8 ± 0.4 s⁻¹ and the specificity constant (kcat/Km) turned out to be 80000 M⁻¹ s⁻¹.

B2: 3HB6H from strain AD-3 (3-hydroxybenzoate 6-hydroxylase; AZF01_02545) (Martelella sp. AD-3; A308G) (protein)
chain: MSNVANEADPILIAGGGIGGLAAAIGLANKGLKSLVLERAPKLGEIGAGIQLGPNAFHAFDYLGVGDAARAIAVYIDNLRLMDAIDGQEITRIPLDDAFRARFRNPYAVIHRGDLHGVFLKACEDHPLVSLRTNAEVVDYDQDENGVTAILKDGERLKGTILIGADGLWSNVRKKVVGDGAPRVSGHTTYRSVIPTEDMPEDLRWNAATLWAGPKCHIVHYPLRGWKLFNLVVTYHNHAPSPEAGVPVSHEEVRKGFEHVAPVARQIIERGQDWKRWVLCDRDPVENWIDGRVVLLGDAAHPMMQYFGQGACMAMEDAVAISHVLGEEGGPLDEALARYQELRALRTARVQLQSREIGQHVYHPGGAHAALRNAVMRSKSPDDWYDIVSWLYGSTGLEGAVSA
notes: as for B1
For B2, in the data set “purified protein [2]”, the Km was determined as 38.0 ± 10.1 µM, the kcat stood at 2.3 ± 0.1 s⁻¹ and the kcat/Km amounted to 60000 M⁻¹ s⁻¹. For the same molecule, in “purified protein [3]”, the Km was found to be 33.7 ± 6.4 µM, the kcat was determined as 2 ± 0.1 s⁻¹ and the kcat/Km is 60000 M⁻¹ s⁻¹.

B3: 3HB6H from strain AD-3 (3-hydroxybenzoate 6-hydroxylase; AZF01_02545) (Martelella sp. AD-3; Q305P) (protein)
chain: MSNVANEADPILIAGGGIGGLAAAIGLANKGLKSLVLERAPKLGEIGAGIQLGPNAFHAFDYLGVGDAARAIAVYIDNLRLMDAIDGQEITRIPLDDAFRARFRNPYAVIHRGDLHGVFLKACEDHPLVSLRTNAEVVDYDQDENGVTAILKDGERLKGTILIGADGLWSNVRKKVVGDGAPRVSGHTTYRSVIPTEDMPEDLRWNAATLWAGPKCHIVHYPLRGWKLFNLVVTYHNHAPSPEAGVPVSHEEVRKGFEHVAPVARQIIERGQDWKRWVLCDRDPVENWIDGRVVLLGDAAHPMMPYFAQGACMAMEDAVAISHVLGEEGGPLDEALARYQELRALRTARVQLQSREIGQHVYHPGGAHAALRNAVMRSKSPDDWYDIVSWLYGSTGLEGAVSA
notes: as for B1
For the molecule B3, in “purified protein [2]”, the Km came to 91.3 ± 13.5 µM, the kcat is 1.6 ± 0.1 s⁻¹ and the catalytic efficiency (kcat/Km) worked out at 20000 M⁻¹ s⁻¹. For the same molecule, in the data set “purified protein [3]”, the Km was found to be 95.9 ± 23.2 µM, the kcat is 1.6 ± 0.1 s⁻¹ and the kcat/Km was found to be 20000 M⁻¹ s⁻¹.

B4: 3HB6H from strain AD-3 (3-hydroxybenzoate 6-hydroxylase; AZF01_02545) (Martelella sp. AD-3; Y221F) (protein)
chain: MSNVANEADPILIAGGGIGGLAAAIGLANKGLKSLVLERAPKLGEIGAGIQLGPNAFHAFDYLGVGDAARAIAVYIDNLRLMDAIDGQEITRIPLDDAFRARFRNPYAVIHRGDLHGVFLKACEDHPLVSLRTNAEVVDYDQDENGVTAILKDGERLKGTILIGADGLWSNVRKKVVGDGAPRVSGHTTYRSVIPTEDMPEDLRWNAATLWAGPKCHIVHFPLRGWKLFNLVVTYHNHAPSPEAGVPVSHEEVRKGFEHVAPVARQIIERGQDWKRWVLCDRDPVENWIDGRVVLLGDAAHPMMQYFAQGACMAMEDAVAISHVLGEEGGPLDEALARYQELRALRTARVQLQSREIGQHVYHPGGAHAALRNAVMRSKSPDDWYDIVSWLYGSTGLEGAVSA
notes: as for B1
For the molecule B4, in the data set “purified protein [2]”, the Km was determined as 164.2 ± 14.0 µM, the kcat stood at 1.7 ± 0.1 s⁻¹ and the kcat/Km is 10000 M⁻¹ s⁻¹. Besides, in the data set “purified protein [3]”, the Km was 86.7 ± 10.8 µM, the turnover number (kcat) came out at 1 ± 0.1 s⁻¹ and the kcat/Km turned out to be 10000 M⁻¹ s⁻¹.

B5: 3HB6H from strain AD-3 (3-hydroxybenzoate 6-hydroxylase; AZF01_02545) (Martelella sp. AD-3; Y306H) (protein)
chain: MSNVANEADPILIAGGGIGGLAAAIGLANKGLKSLVLERAPKLGEIGAGIQLGPNAFHAFDYLGVGDAARAIAVYIDNLRLMDAIDGQEITRIPLDDAFRARFRNPYAVIHRGDLHGVFLKACEDHPLVSLRTNAEVVDYDQDENGVTAILKDGERLKGTILIGADGLWSNVRKKVVGDGAPRVSGHTTYRSVIPTEDMPEDLRWNAATLWAGPKCHIVHYPLRGWKLFNLVVTYHNHAPSPEAGVPVSHEEVRKGFEHVAPVARQIIERGQDWKRWVLCDRDPVENWIDGRVVLLGDAAHPMMQHFAQGACMAMEDAVAISHVLGEEGGPLDEALARYQELRALRTARVQLQSREIGQHVYHPGGAHAALRNAVMRSKSPDDWYDIVSWLYGSTGLEGAVSA
notes: as for B1
Take B5: in the data set “purified protein [2]”, the Km is 46.3 ± 6.9 µM, the catalytic constant (kcat) turned out to be 1.5 ± 0.1 s⁻¹ and the kcat/Km worked out at 30000 M⁻¹ s⁻¹. Moreover, in the data set “purified protein [3]”, the Km worked out at 103.7 ± 13.6 µM and the kcat turned out to be 1.6 ± 0.3 s⁻¹.
